Assay: soluble fraction after stress (log2 fold change); higher = more stays soluble; pooled small domains, quantitative proteomics
Conditions: stress: pH 4
Procedure, shortened: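 Values are on a log2 scale, where higher means more of the domain stayed soluble after pH 4 stress. They are fold changes in the soluble amount of each domain from pooled custom libraries, measured by high-throughput quantitative proteomics. The fold change is taken to reflect aggregation propensity.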

Sequence	soluble fraction (log2)
HMPILRDEVYLSIKEAILTGELAPGERISIGRLLPQIGFSPTPIREALLKLEQEGFVSRLQRGGFIVSR	-0.471
HMVIDFYDPQTKVIHEIKKSSAKEEAHVWQVKYYIYLFEKEEIMGVKGVLEYPLLREIVSVNF	-0.0844
HMLESVMHSRIAEIISREGTAPAHMSMQEKIRVVHKLDADGILMMKGAVAEIADQLSVSVPTIYRYLNKPQ	≥ 0.43
HMIINFDAIRLTTELNKYNRHKAIPNSFFDGTFTILDVRDLYDSLSPKVQKIADTLIEQYNVDVKQ	-1.22
HMIIIMKKSATNSEVRKVIERAEKEGLTVQVNQLEKQQVLGLVGDTRLIQDVAFLRYEGVENVERI	0.206
HMTKQMELLAQGAAKLSVDLNQRQLDQLQTYYRELVDWNQRMNLTAITQYEEVQVKHFLDSL	-0.294
HMDKSNEVLMNHYRKQEINQAKKRLEEEKMSIIQVLQLTNKEVITTDELLEALYISKEQLLDEIINTTQ	-1.02
HMLERPLFTPEQYGRFRGKEARIRLSNPVEGRKTLTGSIVEATEERIVVFVEEEEREVTVPFQWIKSGNL	-0.523
HMSDEINYVIQINGKNRAEAEFGANLDKESIENLALEHERIKELLNGLTVRKIIVVPKKLVNIVA	0.178
HMNLDELGNRIREQRIKQRLKQQDIANALMLSAQAVSKWERGENAPDISVLPDLVKILGVSVDWLLTGP	-1.15
HMETVSFNPDIAVIPDYRHVVILGETTKTIANKYDIPVDILKAANPGLGNNVTKGDRLRVPDKTKLQ	-0.0151
HMFDFMVLGQAIKKARESKEMTREQLAEILDVAPRHIQSIENEGQYPSFPLFIRLVTMFNISVDQY	-1.4
HMSFFNGNQMKILRKKLQLNQEEMGEKLGIKKSYVSQLENNRKEITEEIDQILQELEQEYQDKM	-0.0582
HMVTVQEGETLSAIAARSGVSVKDLVRANEIRNPDSIQEGQVLFVP	0.165
HMRQMSEELQSAKEALEDRRTQEKAVLLLMEHRNISNDEAHRLLRKLAMDQGKRLPEVARALVSMAGVL	-0.203
HMDSEEVYQMTKHKMDAAQISVAKRIHINLVLVKLLELHHLGYDLRHYHAQHHAFIKRLNLPEYFRFD	-0.832
HMEPREEFTFADLRANGLNGTAAAAGRRAALGAALGIGYGNAKQFLRRLNHYGVTRSEWEAALADLDE	-0.0963
HMTADIRFLNSRKFYIYKVEKGETLFSISQKFNIPQEEIIQFNKDINQQGLKAKTKLWVPAYSWL	-0.43
HMPDLQKAIDDLLQVVDKRLNTSFESILNEVNSEKEAVAFFLALLEAVRWGFVKASQSDEGIKIEK	-0.387
HMLKPQQTQRIYAMAARLGVLESGNKNDMLHTIVYRLTQKESIRSLNENEYKTVVSELAERLKL	-0.917
HMKGSIFLDEATKMVDNSALKSLNTFLEEYARETNNQIFLISHQETPAEVTQIKLKKVGGETSYE	-0.0644
HMIHFDHPERSILDTMLYEKKGMTAQSARNRLAAYQFQGEDVFKPVSVLSGGELSRITLAIKNAMADK	0.0479
HMRSKTSYAVWTPIQIDAGSQMQALQSKGFNTVLMEGGISVGIRSDKAQAQALLNRLQGAGFTGQLREVN	0.259
HMQKVPDAFKAEQVQTLITRLGVSRAELARTLDVSLSTVNKWASGAVEPKGSALVLLKVLWMHGFKAL	0.03
HMDIPGITAVKPQAAFYMFPKIDVKKFNIVNDEKFALDLLQDKKILIVQGSGFNWKQPDHFRVV	0.115
HMFDTVKIGKRIAELRKKRDMTQFELADRLGISYQAVSNWERGNSMPDIAKLPELAEIFGVTVDEILG	0.135

Sequence	soluble fraction (log2)
HMQINLKQSSDEELVKIITVQVHHYEPHTVKAAEAEIERRGIDKMRMAHLVKKVAQENTAVQEIQD	0.134
HMESYTEEMLEKMSVSKLRTIARELQVDNMTREQIRFGKKTELIQNILEFTGREIENMQLYDK	-0.357
HMTKPLHELLSQREFQVFTQLAAGRSVGEIAQQLSLSSNTVSTYRARILEKTGTRNDVELALYAIRR	-0.231
HMNESEALIARIENLPPIEDLTEKHAEEVKALMTVYSKLKMSDRILVTNYGVLKKDFDALVKKGFLTNED	0.0976
HMNAEQLAQVRRQKIGFIFQDFRLFPEYTVRDNILIPFYLDHRAPDEQMLHKLTGILGIAGKLHSRPAQL	-0.0979
HMKKVSVKPILELRAAGISMRKIETLMHVSRHTISAIYKAADAYSISWDNVKDFDEDKIYEMLFPPTP	≥ 0.43
HMTVKVPDLRGKTLAEMQRILDDAGLKYEINDSTFSRTAIPGTVREVIPAPGSEVKLGRILFIAINGF	0.00881
HMNLTSSDIQKILSYALLADNSITLNSIEESMASLKLKKMSAEQLIELLEVSSMVLRNTNNSWSIL	-1.32
HMNIGEKIKKIRTQQNKSTYELADIINKNGFKISQSAISKIENGRKKIDIETLEEIAKALDIEVDLLIT	-0.282
HMFMKNTEVALAIKGKFSNQTTITSKELVLFLSDLFPELSNKTIPWKINQLKAENLIYQTGRGIYTFN	-0.809
HMIMISKSFEINEDNINKRLDIFLTENLDGLSRGIVQKYISLEQITVNKESSHKDYRLKLDDFIEVKIQAH	-1.06
HMGQLSDREALTVLAREALVELPRAAGDYRNGRTAALQSLVGRVMRKTAGRGNPALLQEIFRSLL	0.00453
HMWPTPRTWSALMNELNLYKENHGYANIVDIPSEKIRRMADGIIGEDMAVRYVAFLQSHASS	-0.614
HMSVYIGVDQAKSIAAEHAGLSNSAVTFSKAKLENDDGMTVYEVEFFYQGTEYDYKIDASTGSILEYDLDR	-0.0157
HMLRIIDYNRVVKDLNGLTPEQLLEKLAESFTVEDKGTEEYRPTELHNFSMYLGGHWYSLTAKPGTYDDND	-0.926
HMGLQRLTVSPEDAGVRIDKYLAEQLPDITRSYLQKLLKDGSVQMNGKPVKASTKTAVGAVIALTIPEP	-0.157
HMLMRKAEVGVESLNLRHGPGTQYKVLEILPGGKSLHYLAEPRRGWVRVTTEEGTTGWTFLKFLKPE	-0.0205
HMFEARNTTFSEDGKTITETYGVKRIETEFVSDSTIVQKLYDNDVLTKTKTITFSADGLSIKEDV	-1.33
HMKYNYEAQQSDELSLVKGSRIHVLEKSSDGWWKGEIDNVVGWFPS	-0.102
HMTTETGTVKWFNEGKGFGFIAPDGGGKDLFAHFKEIQGSGFKTLTENQRVQFEVTQGQKGPQASNIRTL	-0.183
HMGTAEDYLLPRRAEILSIIRDHEFANFDLIRRRFLAVNERTLRYDLKKLSDLGLIKKLGKTRGVYYRAAK	≥ 0.43
HMIGVQEFAMTYALTRRETEITQLIIQGKSNAMIAGELFISETTVKKHVSNIFEKTGVSRREELMVRVQAE	-1.45
HMTLPGQDFIRASQLKELIAKYDKQYYEEGVSDISDAEYDRLYEEYLEFENKYPELKDMADAPTKRV	-0.661
HMTNALDMMKTMDSDAYTKYQKISKESSNEDRQLNELKYITNWYAGAVKKNPSMVDDYEKQKEADS	0.162
HMAPGVHVEALLPYTAGSLVSQIREYGNVDAVEYRDTGILLQADVDERLAAQIMDQALEDPV	-1.03
HMSFGESLKKLSIALNSIRKLATTDAGKKDPKVADLLGQIRDTFNSYRTHLRKNYPDLYSGIKNQL	-0.311

Sequence	soluble fraction (log2)
HMKKYLNIYNIIVNKIESKEYQSNDKLPSEKELMDQYNVSRDTVRKSLNMLEQNGYIQKTKGKGSFVLDIN	0.409
HMHLTRYQYKVETEQEAVGLKELSSVHDLQIKENEATFQADSDAIDEILKTLLLYGVKKLEATPPTLED	-1.05
HMQADPYTVLGVLRDVTDGELKREYRKLVREHHPDALIAQGVPQEFVDIANNKLAVINAAYERIAKQRGL	-0.293
HMKKRDANSQGTRLILFYMLQRLHTEYKLQGFVTYNQRRSFREIYDAYHALGGNGFGTAMWEEVKELDLK	-0.0682
HMADYSMDDNAWNAKKADIDEWFEANPDFSANKAITDGLFSIGDSQVEMRKRYWASIAGVFAGLPNSPIG	-1.78
HMGPVDFYQMFISELQHLAEKPVTVDALIESTQLHKSQLTEWLKRAVDDGVVKKLNRPARFQVKNK	0.136
HMHGYLSDPAARLIRARRKTLSIRITQEGNLEIRAPLGMPKGEIEAFLKEKAQWIETHRAKVLAEYA	-0.138
HMDVALEALDESDGAVRLQFSGALQTYLNDSTTAASLEAISKTFRAFYEAAGRPVDTLEVYAAGEPVT	-0.42
HMSVTDDQLRVFTNKSGTKIKAKIVEVSDDKVKLIRDDNKKFIVPINSLSEEDQDYLRDWVSNEAVEP	-0.0786
HMTNVFSIIGKKALVIKDIDPIHSSGQIKLNGEVWSAETENDEIIKEGSEVEVLKINGVKAIVKLV	0.149
HMGEVPPGWSVEALAAIERDLAHHVGPVARVLVQRGARLHTTTDDLRSALANAITDDLARRRFMQP	-0.635
HMPTGRVVIPLNRLTASDVARILDEAYGRDHNFEVVKPSRLAKGIIVIGPKSEIDGIKELLAH	-0.173
HMKSLLSRREQEVLELVSRGFSYSEIAELKNLSVHTIQTHIKSLYGKLEVHSKMEAVLEATRMGLLPQ	-1.12
HMSSFRDISGTVYVKASAANLRSEPNTSSLIVDTLYYGASLQRISTNDIWTKVKTGNGQIGFMDNSLFQT	≥ 0.43
HMVIREVNDNPVSAEELRLGDRVKVLSLGQNGEIVTLPDEKGELTVQVGILKAKVNLDDIMLI	0.0234
HMEQVLDEEIIKSAVQKVIKDNPSAVSDYKAGKKTAFQFLIGKAMAELQGKGHPGKISELLEKE	0.257
HMLDIQKKGENIAYIEGAGDVIPESLKQIGYHVVTIAPKDINAETLSRFDAVVVGIRAYNTVEDL	-0.241
HMASSRPLAEGDFVRLRAGGATGRIESIKGQKATVQMGGLKVHAPLRDLLPVAEPIKQVSTASNT	0.203
HMSKIRTFRVKTVAVDQAYQVLKDYSPIKISTESNAVIIDLDESKTPAEIAGYLEKNGIKVDNIEVIAESE	-0.148
HMGEPVASSREVAKRFGKEHKHVLAAIRQILVAENSATKFFHETAFEYRGQRFPEYLMNRDGFALLAMGF	-1.35
HMFERIYVFSRDGDIIELPKGSTVLDFAYHVHTHVGNRAQAARVNKRYVPLTYQLKTGEQVEIIIS	-1.05
HMREPDPELTASIKSMAESNDQSERLVALAQLSEQRAVDPEVADQILLIALLDEDPIIRGQAVYA	0.0401
HMSAVVAPLPGLIQNILVKVGDTVHAGQHVLTMEAMKMENEIQTNRDGIIKDIKVRIGDSVNEGDTLIIL	-0.311
HMDGDVAVKGGDGVLEVRLANAANVRVYNLAGRLMADYTGTELHMPLPKGVYMVVAGDNRTKVVV	-0.00794

— the domain aggregation screens of Martell et al. (2025)
